Patent US20220251152A1, “COMPOSITIONS AND METHODS FOR SELECTIVE PROTEIN DEGRADATION” (Novartis AG, priority 2019, published 2022)
Changes are numbered by the printed parent chain.

B1: construct 769: signal peptide, CAR19, a 16GS linker, and the HilD tag (protein)
chain: EIVMTQSPATLSLSPGERATLSCRASQDISKYLNWYQQKPGQAPRLLIYHTSRLHSGIPARFSGSGSGTDYTLTISSLQPEDFAVYFCQQGNTLPYTFGQGTKLEIKGGGGSGGGGSGGGGSQVQLQESGPGLVKPSETLSLTCTVSGVSLPDYGVSWIRQPPGKGLEWIGVIWGSETTYYQSSLKSRVTISKDNSKNQVSLKLSSVTAADTAVYYCAKHYYYGGSYAMDYWGQGTLVTVSSTTTPAPRPPTPAPTIASQPLSLRPEACRPAAGGAVHTRGLDFACDIYIWAPLAGTCGVLLLSLVITLYCKRGRKKLLYIFKQPFMRPVQTTQEEDGCSCRFPEEEEGGCELRVKFSRSADAPAYQQGQNQLYNELNLGRREEYDVLDKRRGRDPEMGGKPRRKNPQEGLYNELQKDKMAEAYSEIGMKGERRRGKGHDGLYQGLSTATKDTYDALHMQALPPRGGGGSGGGGTGGGGSGMHKRSHTGERPFQCNQCGASFTQKGNLLRHIKLHTGEKPFKCHLCNTASAEARHIKAEMG
B2: construct 771: signal peptide, CAR19, the HilD tag, and a V5 (protein)
chain: MALPVTALLLPLALLLHAARPEIVMTQSPATLSLSPGERATLSCRASQDISKYLNWYQQKPGQAPRLLIYHTSRLHSGIPARFSGSGSGTDYTLTISSLQPEDFAVYFCQQGNTLPYTFGQGTKLEIKGGGGSGGGGSGGGGSQVQLQESGPGLVKPSETLSLTCTVSGVSLPDYGVSWIRQPPGKGLEWIGVIWGSETTYYQSSLKSRVTISKDNSKNQVSLKLSSVTAADTAVYYCAKHYYYGGSYAMDYWGQGTLVTVSSTTTPAPRPPTPAPTIASQPLSLRPEACRPAAGGAVHTRGLDFACDIYIWAPLAGTCGVLLLSLVITLYCKRGRKKLLYIFKQPFMRPVQTTQEEDGCSCRFPEEEEGGCELRVKFSRSADAPAYQQGQNQLYNELNLGRREEYDVLDKRRGRDPEMGGKPRRKNPQEGLYNELQKDKMAEAYSEIGMKGERRRGKGHDGLYQGLSTATKDTYDALHMQALPPRMHKRSHTGERPFQCNQCGASFTQKGNLLRHIKLHTGEKPFKCHLCNTASAEARHIKAEMGGKPIPNPLLGLDST
B3: 771 (protein)
chain: B2 chain
B4: construct 773: modified signal peptide, the HilD tag, a furin cleavage site, and CAR19 (protein)
chain: MALPVTALLLPLALLLHAARPRSSLAHKRSHTGERPFQCNQCGASFTQKGNLLRHIKLHTGEKPFKCHLCNTASAEARHIKAEMGGTGAEDPRPSRKRRSLGDVGEIVMTQSPATLSLSPGERATLSCRASQDISKYLNWYQQKPGQAPRLLIYHTSRLHSGIPARFSGSGSGTDYTLTISSLQPEDFAVYFCQQGNTLPYTFGQGTKLEIKGGGGSGGGGSGGGGSQVQLQESGPGLVKPSETLSLTCTVSGVSLPDYGVSWIRQPPGKGLEWIGVIWGSETTYYQSSLKSRVTISKDNSKNQVSLKLSSVTAADTAVYYCAKHYYYGGSYAMDYWGQGTLVTVSSTTTPAPRPPTPAPTIASQPLSLRPEACRPAAGGAVHTRGLDFACDIYIWAPLAGTCGVLLLSLVITLYCKRGRKKLLYIFKQPFMRPVQTTQEEDGCSCRFPEEEEGGCELRVKFSRSADAPAYQQGQNQLYNELNLGRREEYDVLDKRRGRDPEMGGKPRRKNPQEGLYNELQKDKMAEAYSEIGMKGERRRGKGHDGLYQGLSTATKDTYDALHMQALPPR
B5: construct 774: signal peptide, the HilD tag, a furin cleavage site, and CAR19 (protein)
chain: MALPVTALLLPLALLLHAARPHKRSHTGERPFQCNQCGASFTQKGNLLRHIKLHTGEKPFKCHLCNTASAEARHIKAEMGGTGAEDPRPSRKRRSLGDVGEIVMTQSPATLSLSPGERATLSCRASQDISKYLNWYQQKPGQAPRLLIYHTSRLHSGIPARFSGSGSGTDYTLTISSLQPEDFAVYFCQQGNTLPYTFGQGTKLEIKGGGGSGGGGSGGGGSQVQLQESGPGLVKPSETLSLTCTVSGVSLPDYGVSWIRQPPGKGLEWIGVIWGSETTYYQSSLKSRVTISKDNSKNQVSLKLSSVTAADTAVYYCAKHYYYGGSYAMDYWGQGTLVTVSSTTTPAPRPPTPAPTIASQPLSLRPEACRPAAGGAVHTRGLDFACDIYIWAPLAGTCGVLLLSLVITLYCKRGRKKLLYIFKQPFMRPVQTTQEEDGCSCRFPEEEEGGCELRVKFSRSADAPAYQQGQNQLYNELNLGRREEYDVLDKRRGRDPEMGGKPRRKNPQEGLYNELQKDKMAEAYSEIGMKGERRRGKGHDGLYQGLSTATKDTYDALHMQALPPR
B6: construct 6761: signal peptide, CAR19, a 16KGS linker, the HilD tag, and a V5 (protein)
chain: MALPVTALLLPLALLLHAARPEIVMTQSPATLSLSPGERATLSCRASQDISKYLNWYQQKPGQAPRLLIYHTSRLHSGIPARFSGSGSGTDYTLTISSLQPEDFAVYFCQQGNTLPYTFGQGTKLEIKGGGGSGGGGSGGGGSQVQLQESGPGLVKPSETLSLTCTVSGVSLPDYGVSWIRQPPGKGLEWIGVIWGSETTYYQSSLKSRVTISKDNSKNQVSLKLSSVTAADTAVYYCAKHYYYGGSYAMDYWGQGTLVTVSSTTTPAPRPPTPAPTIASQPLSLRPEACRPAAGGAVHTRGLDFACDIYIWAPLAGTCGVLLLSLVITLYCKRGRKKLLYIFKQPFMRPVQTTQEEDGCSCRFPEEEEGGCELRVKFSRSADAPAYQQGQNQLYNELNLGRREEYDVLDKRRGRDPEMGGKPRRKNPQEGLYNELQKDKMAEAYSEIGMKGERRRGKGHDGLYQGLSTATKDTYDALHMQALPPRKGGGSKGGGTKGGGSKMHKRSHTGERPFQCNQCGASFTQKGNLLRHIKLHTGEKPFKCHLCNTASAEARHIKAEMGGKPIPNPLLGLDST
B7: construct 768: signal peptide, CAR19, a 16GS linker, the HilD tag, and a V5 (protein)
chain: B6 chain with K487G, K492G, K497G, K502G

Test system: CAR19 fused to HilD tag and/or FurON
Assay: Flow cytometry of surface CAR expression on JNL cells, 10 μM lenalidomide and/or bazedoxifene 24 hours
Format: cell-based, human
Details: for effect of lenalidomide on surface CAR expression of the construct: 10 μM lenalidomide for 24 hours
[1] = surface CAR on transduced JNL cells, 10 μM lenalidomide, 24 hours

Source text: Next, the surface expression of CAR19 on stably transduced JNL cells was examined by flow cytometry. […] On Day 2, cells were harvested, stained using biotinylated-protein L (Genscript, M00097) followed by PE conjugated streptavidin (Jackson Lab, 016-110-084), and subjected to flow cytometry analysis using Fortessa instrument.

| Molecule | effect of lenalidomide on surface CAR expression of the construct | further results |
| --- | --- | --- |
| B1 | significantly reduced surface CAR expression |  |
| B2 | significantly reduced surface CAR expression |  |
| B3 |  | % reduction in CAR expression [1]: 87%; Effect of lenalidomide [1]: Yes; CAR Expression (surface CAR on transduced JNL cells, flow cytometry, FurON constructs only in presence of bazedoxifene): Yes |
| B4 | did not impact surface CAR expression |  |
| B5 | did not impact surface CAR expression |  |
| B6 | significantly reduced surface CAR expression |  |
| B7 | significantly reduced surface CAR expression |  |
